In IntAct's records for PubMed 12907709:

B1: DNA-directed RNA polymerase II subunit rpb7 (Schizosaccharomyces pombe (strain ATCC 38366 / 972)), O14459 (parent)
chain: MPFFLKELSLTISLHPSYFGPRMQDYLKAKLLADVEGTCSGQYGYIICVLDSNTIDIDKGRVVPGQGFAEFEVKYRAVLWRPFRGEVVDAIVTTVNKMGFFANIGPLNVFVSSHLVPPDMKFDPTANPPNYSGEDQVIEKGSNVRLKIVGTRTDATEIFAIATMKEDYLGVL
partner: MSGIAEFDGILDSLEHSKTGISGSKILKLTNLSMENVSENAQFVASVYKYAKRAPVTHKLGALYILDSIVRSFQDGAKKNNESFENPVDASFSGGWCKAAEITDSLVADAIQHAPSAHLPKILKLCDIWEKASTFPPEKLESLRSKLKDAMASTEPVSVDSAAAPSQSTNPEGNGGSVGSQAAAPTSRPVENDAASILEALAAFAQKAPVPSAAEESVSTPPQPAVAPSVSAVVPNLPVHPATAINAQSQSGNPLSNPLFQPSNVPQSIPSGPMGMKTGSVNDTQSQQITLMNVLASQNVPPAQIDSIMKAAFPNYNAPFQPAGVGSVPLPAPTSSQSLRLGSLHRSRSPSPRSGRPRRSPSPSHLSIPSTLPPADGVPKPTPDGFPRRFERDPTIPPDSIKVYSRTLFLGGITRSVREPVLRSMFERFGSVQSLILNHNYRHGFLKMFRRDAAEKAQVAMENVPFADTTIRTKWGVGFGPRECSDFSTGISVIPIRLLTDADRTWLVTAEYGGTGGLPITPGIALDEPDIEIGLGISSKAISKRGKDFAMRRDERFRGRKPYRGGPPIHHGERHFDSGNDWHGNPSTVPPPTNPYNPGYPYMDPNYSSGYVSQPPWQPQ

Variants of: B1
Settings: with seb1_schpo seb1, Q9UTE3

Question: How did the “effect of a mutation on the interaction” value turn out when E166R;D167A was run?
Answer: Its value is “disrupting interaction”.
